Experimental findings from article PMC8466245 are described below.

For assay [1], the target named is Glycymeris yessoensis lectin (GYL) (Glycymeris yessoensis). Put plainly: MALDI-TOF mass spectrometry; Ultraflex III MALDI-TOF/TOF; singly charged ions of the subunit and of the subunit dimer.
The target is the same in assay [2]. The experiment in a line: SDS-PAGE without and with DTT; 15% separation gel, in the absence and presence of 10 mM DTT; disulfide-linked (covalent) dimer to subunits.

As usually defined, the stoichiometry N is the number of molecules, sites or subunits per partner or assembly.

For “Glycymeris yessoensis lectin (GYL) (natural protein)”, the stoichiometry N in assay [1] and in assay [2] was 2 throughout.
